B1: HycE, the large hydrogenase subunit of FHL, with an internal 10x His affinity tag (enzyme, Escherichia coli, UniProt P16431 1-537, looked up)
chain: MSEEKLGQHYLAALNEAFPGVVLDHAWQTKDQLTVTVKVNYLPEVVEFLYYKQGGWLSVLFGNDERKLNGHYAVYYVLSMEKGTKCWITVRVEVDANKPEYPSVTPRVPAAVWGEREVRDMYGLIPVGLPDERRLVLPDDWPDELYPLRKDSMDYRQRPAPTTDAETYEFINELGDKKNNVVPIGPLHVTSDEPGHFRLFVDGENIIDADYRLFYVHRGMEKLAETRMGYNEVTFLSDRVCGICGFAHSTAYTTSVENAMGIQVPERAQMIRAILLEVERLHSHLLNLGLACHFTGFDSGFMQFFRVRETSMKMAEILTGARKTYGLNLIGGIRRDLLKDDMIQTRQLAQQMRREVQELVDVLLSTPNMEQRTVGIGRLDPEIARDFSNVGPMVRASGHARDTRADHPFVGYGLLPMEVHSEQGCDVISRLKVRINEVYTALNMIDYGLDNLPGGPLMVEGFTYIPHRFALGFAEAPRGDDIHWSMTGDNQKLYRWRCRAATYANWPTLRYMLRGNTVSDAPLIIGSLDPCYSCTDR
notes: HycE, large [NiFe] hydrogenase subunit of the E. coli formate hydrogenlyase (FHL) complex; His10 tag placed after Gly-83; also called [NiFe] hydrogenase HycE; Hyd-3 large subunit; source: purified from LMNG-solubilised membranes (HisTrap, SEC); not shown: His10, internal (after residue 83), kept
B2: HycB (natural protein, Escherichia coli, UniProt P0AAK1 1-203, looked up)
chain: MNRFVIADSTLCIGCHTCEAACSETHRQHGLQSMPRLRVMLNEKESAPQLCHHCEDAPCAVVCPVNAITRVDGAVQLNESLCVSCKLCGIACPFGAIEFSGSRPLDIPANANTPKAPPAPPAPARVSTLLDWVPGIRAIAVKCDLCSFDEQGPACVRMCPTKALHLVDNTDIARVSKRKRELTFNTDFGDLTLFQQAQSGEAK
notes: HycB, ferredoxin-like subunit of the E. coli formate hydrogenlyase (FHL) complex; coordinates [4Fe4S] clusters B1-B4; Native subunit from the hycABCDEFGHI operon, not tagged; also called ferredoxin-like protein HycB; source: endogenous, E. coli strain MG059e1, anaerobic fermentation; co-purified with His10-HycE from LMNG-solubilised membranes (HisTrap, SEC)

Experiment [1] concerns the target T1, HycC (Escherichia coli, UniProt P16429 1-608).
T1 construct: Native subunit from the hycABCDEFGHI operon, not tagged; also called antiporter-like subunit HycC; source: endogenous, E. coli strain MG059e1, anaerobic fermentation; co-purified with His10-HycE from LMNG-solubilised membranes (HisTrap, SEC)
T1 sequence (looked up): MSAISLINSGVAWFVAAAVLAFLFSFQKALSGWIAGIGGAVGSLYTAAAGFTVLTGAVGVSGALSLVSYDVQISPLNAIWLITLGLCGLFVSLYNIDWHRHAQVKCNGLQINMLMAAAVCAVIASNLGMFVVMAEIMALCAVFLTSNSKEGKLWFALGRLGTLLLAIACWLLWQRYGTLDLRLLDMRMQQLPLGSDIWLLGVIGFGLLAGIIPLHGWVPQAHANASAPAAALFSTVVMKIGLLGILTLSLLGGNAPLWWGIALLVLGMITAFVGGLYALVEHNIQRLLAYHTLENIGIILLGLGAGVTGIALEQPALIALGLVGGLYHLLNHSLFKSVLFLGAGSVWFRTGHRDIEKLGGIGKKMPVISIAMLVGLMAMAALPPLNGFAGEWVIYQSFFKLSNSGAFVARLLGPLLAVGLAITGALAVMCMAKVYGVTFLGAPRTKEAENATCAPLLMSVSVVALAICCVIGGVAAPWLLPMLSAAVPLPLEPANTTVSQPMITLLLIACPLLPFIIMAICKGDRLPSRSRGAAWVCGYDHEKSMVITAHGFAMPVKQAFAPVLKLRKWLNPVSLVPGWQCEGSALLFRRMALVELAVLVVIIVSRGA
Description: co-purification (His-tag affinity, then SEC); aerobic isolation: membranes solubilised with 0.5% LMNG, HisTrap FF by the His10 tag in HycE, Superdex 200 Increase; 20 mM Tris, 200 mM NaCl, 1 mM DTT, 0.005% LMNG, pH 7.5. The conditions noted are these: partners not purified.

Experiment [2] has as its target B1. The experiment is described as follows: co-purification (His-tag affinity, then SEC); anaerobic isolation: as the aerobic one but in an anaerobic chamber (<1 ppm O2, 3-4% hydrogen in nitrogen), anaerobic buffers, lysis by sonication (also bead-beating or B-PER). The conditions noted are these: partners not purified.
For experiment [3], the target named is T2, formate dehydrogenase H (FdhF) (Escherichia coli, UniProt P07658 1-715, metal-coordinating selenocysteine (Sec); position not given).
T2 construct: Formate dehydrogenase H, FdhF, subunit of the E. coli formate hydrogenlyase (FHL) complex; carries Mo(MGD)2 and [4Fe4S] cluster A1; Native subunit, not tagged; also called formate dehydrogenase subunit FdhF; source: endogenous, E. coli strain MG059e1, anaerobic fermentation; co-purified with His10-HycE from LMNG-solubilised membranes (HisTrap, SEC)
T2 sequence (looked up): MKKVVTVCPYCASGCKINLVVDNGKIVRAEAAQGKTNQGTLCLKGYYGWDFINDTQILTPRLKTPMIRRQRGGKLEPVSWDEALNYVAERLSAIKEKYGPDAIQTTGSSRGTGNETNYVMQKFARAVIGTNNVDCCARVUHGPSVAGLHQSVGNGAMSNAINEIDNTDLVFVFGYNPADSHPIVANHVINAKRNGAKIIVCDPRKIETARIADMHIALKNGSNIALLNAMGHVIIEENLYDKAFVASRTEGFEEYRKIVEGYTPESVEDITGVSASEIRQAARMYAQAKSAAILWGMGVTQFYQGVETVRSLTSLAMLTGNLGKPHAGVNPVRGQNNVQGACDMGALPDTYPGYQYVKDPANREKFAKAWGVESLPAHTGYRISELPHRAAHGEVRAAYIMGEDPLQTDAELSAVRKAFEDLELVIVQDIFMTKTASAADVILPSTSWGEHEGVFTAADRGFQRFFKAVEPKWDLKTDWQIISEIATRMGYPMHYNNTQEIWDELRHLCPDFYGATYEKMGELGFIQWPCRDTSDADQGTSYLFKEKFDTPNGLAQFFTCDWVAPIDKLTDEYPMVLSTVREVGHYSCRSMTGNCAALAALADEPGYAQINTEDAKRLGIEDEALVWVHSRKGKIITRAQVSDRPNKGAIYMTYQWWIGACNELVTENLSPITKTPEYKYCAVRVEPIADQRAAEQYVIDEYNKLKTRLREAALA
The experiment is described as follows: cryo-EM structure; aerobically isolated FHL (heptameric FdhF-HycBCDEFG) in LMNG, single-particle analysis, 3.4 Å (focused refinements 3.0-3.4 Å). The following applies: both partners purified.

Experiment [4] addresses B1. The experiment is described as follows: co-purification (His-tag affinity, then SEC); aerobic isolation: membranes solubilised with 0.5% LMNG, HisTrap FF by the His10 tag in HycE, Superdex 200 Increase; 20 mM Tris, 200 mM NaCl, 1 mM DTT, 0.005% LMNG, pH 7.5. The following applies: partners not purified.
In experiment [5] the target is T1, HycC. The experiment is described as follows: cryo-EM structure; anaerobically isolated FHL (hexameric HycBCDEFG) in LMNG, grids prepared in the anaerobic chamber with fluorinated fos-choline-8, 2.6 Å. The conditions noted are these: both partners purified.
The experiment “HycB” concerns the target B2. The experiment is described as above. The conditions noted are these: both partners purified.

This note sets out measurements from PMC9474812, “Structure of the membrane-bound formate hydrogenlyase complex from Escherichia coli” (Nature Communications, 2022).

Regarding B1, in the experiment with HycC [1], the binding result is “binds”.
Turning to B2, the binding result in experiment [2] and in experiment [3] was “binds” in each case.

B3: HycD (natural protein, Escherichia coli, UniProt P16430 1-307, looked up)
chain: MSVLYPLIQALVLFAVAPLLSGITRVARARLHNRRGPGVLQEYRDIIKLLGRQSVGPDASGWVFRLTPYVMVGVMLTIATALPVVTVGSPLPQLGDLITLLYLFAIARFFFAISGLDTGSPFTAIGASREAMLGVLVEPMLLLGLWVAAQVAGSTNISNITDTVYHWPLSQSIPLVLALCACAFATFIEMGKLPFDLAEAEQELQEGPLSEYSGSGFGVMKWGISLKQLVVLQMFVGVFIPWGQMETFTAGGLLLALVIAIVKLVVGVLVIALFENSMARLRLDITPRITWAGFGFAFLAFVSLLAA
notes: HycD, integral membrane subunit (ND1 homolog) of the E. coli formate hydrogenlyase (FHL) complex, eight TMHs; Native subunit from the hycABCDEFGHI operon, not tagged; also called membrane-anchor subunit HycD (ND1 homolog); source: endogenous, E. coli strain MG059e1, anaerobic fermentation; co-purified with His10-HycE from LMNG-solubilised membranes (HisTrap, SEC)
With B3, the binding result (in experiment [4]; with HycC [5]) was “binds” each time.

B4: HycF (natural protein, Escherichia coli, UniProt P16432 1-180, looked up)
chain: MFTFIKKVIKTGTATSSYPLEPIAVDKNFRGKPEQNPQQCIGCAACVNACPSNALTVETDLATGELAWEFNLGHCIFCGRCEEVCPTAAIKLSQEYELAVWKKEDFLQQSRFALCNCRVCNRPFAVQKEIDYAIALLKHNGDSRAENHRESFETCPECKRQKCLVPSDRIELTRHMKEAI
notes: HycF, ferredoxin-like subunit (NDUFS8 homolog) of the E. coli formate hydrogenlyase (FHL) complex; coordinates [4Fe4S] clusters F1, F2 and a metal ion at Cys117, Cys120, Cys155, Cys158; Native subunit from the hycABCDEFGHI operon, not tagged; also called ferredoxin-like protein HycF; source: endogenous, E. coli strain MG059e1, anaerobic fermentation; co-purified with His10-HycE from …
For B4, the binding result (in experiment [3]; in the experiment with HycB) was “binds” throughout.
